Laboratory results published in PMC7815066 (Chem, 2021).

What was measured:
[1] = target: E. coli bo3 oxidase (E. coli); assay: mass photometry
[2] = target: E. coli bo3 oxidase (E. coli); assay: SEC-MALS
mass photometry = target: the molecule itself; assay: mass photometry
[3] = target: T1, Streptomyces lividans potassium channel KcsA (Streptomyces lividans), P0A334; assay: mass photometry; settings: remark: other sources report otherwise
T1 chain: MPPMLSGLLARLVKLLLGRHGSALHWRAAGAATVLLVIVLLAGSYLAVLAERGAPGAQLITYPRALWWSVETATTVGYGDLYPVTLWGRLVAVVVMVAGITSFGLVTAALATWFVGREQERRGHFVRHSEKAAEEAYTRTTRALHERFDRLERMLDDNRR

[4] = target: T1, Streptomyces lividans potassium channel …; assay: mass photometry; settings: remark: other sources report otherwise

Molecule E. coli bo3 oxidase (complex) has a relative abundance of dimers [1] of 20%, a stoichiometry N [1] of 2 and a relative abundance of dimers [2] of 28%. The relative abundance of monomers [2] was 72% and the stoichiometry N [2] was 2.

B1: E. coli outer membrane protein F (natural protein)
chain: AEIYNKDGNKVDLYGKAVGLHYFSKGNGENSYGGNGDMTYARLGFKGETQINSDLTGYGQWEYNFQGNNSEGADAQTGNKTRLAFAGLKYADVGSFDYGRNYGVVYDALGYTDMLPEFGGDTAYSDDFFVGRVGGVATYRNSNFFGLVDGLNFAVQYLGKNERDTARRSNGDGVGGSISYEYEGFGIVGAYGAADRTNLQEAQPLGNGKKAEQWATGLKYDANNIYLAANYGETRNATPITNKFTNTSGFANKTQDVLLVAQYQFDFGLRPSIAYTKSKAKDVEGIGDVDLVNYFEVGATYYFNKNMSTYVDYIINQIDSDNKLGVGSDDTVAVGIVYQF
For B1, the “stoichiometry N” value (mass photometry) was 3.

B2: Streptomyces lividans potassium channel KcsA, P0A334 1-160 (natural protein)
chain: T1 chain
With B2 the stoichiometry N [3] was 4 and the stoichiometry N [4] was 4.
